Consider three molecules from patent publication US8221990B2, “Screening GPR12 receptor for substances having Nesfatin-1-like action, or which regulate Nesfatin-1 action” (Teijin Pharma Limited, priority 2007, dated 2012).

The nature of assay [1]: Amount of food intake in a mouse after intraperitoneal administration. In kind it is in vivo. The settings on record: C57BL/6J male mouse, 0.25 nmol per gram of body weight, 0 to 3 hours. Here is the method: A 7-week-old C57BL/6J strain male mouse (CLEA Japan, Inc.) was used as an experimental animal. After purchasing the mouse, the mouse was raised at 22° C. in cycles of the 12-hour light period from 6 a.m. to 6 p.m. and the 12-hour dark period from 6 p.m. to 6 a.m. on the next morning with free access to pelleted feed (CLEA Japan, Inc., CE-2).
A 5 nmol aliquot of Nesfatin-1M30 (Mid-segment, SEQ ID NO: 11), M30_Ag-A (SEQ ID NO: 50), or M30_MSH-A (SEQ ID NO: 51) was dissolved in each 100 μL of saline, and each of the resultant solutions was administered intraperitoneally to a C57BL/6J mouse at a dose of 0.25 nmol per gram of body weight of the mouse. In the control group, only saline (Vehicle) was administered. Each mouse (5 mice in each group) was intraperitoneally given a single injection of a sample using a tuberculin syringe with 26 G needle, immediately before the dark period (6 p.m.).
Each mouse administered was placed in an individual cage, and the amount of food intake was determined by measuring the decreased amount of the pelleted feed during the period from 0 to 3 hours after the administration of a test substance. In the mouse administered with each test sample, the amount of food intake during 3 hours after the administration (g/3 h) is shown in FIG. 6.

The target of assay [2] is T1, mouse GPR12 (Mus musculus, UniProt P35412).
T1 construct: expressed in transfected cells
T1 sequence (P35412 1-334): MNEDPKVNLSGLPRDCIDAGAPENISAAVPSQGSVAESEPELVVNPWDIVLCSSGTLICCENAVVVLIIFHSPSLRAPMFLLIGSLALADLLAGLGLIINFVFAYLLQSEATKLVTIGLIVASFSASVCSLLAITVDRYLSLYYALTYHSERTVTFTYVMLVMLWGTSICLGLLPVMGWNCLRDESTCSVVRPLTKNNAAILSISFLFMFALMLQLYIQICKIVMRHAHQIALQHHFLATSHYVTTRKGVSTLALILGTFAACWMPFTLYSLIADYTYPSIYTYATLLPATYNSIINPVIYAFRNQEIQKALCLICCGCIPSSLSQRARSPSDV
Put plainly: cAMP production in CHO-K1-cell stable expression system (CHO-K1-GPR12). In kind it is cell-based. The settings on record: CHO-K1-GPR12, peptide 10^-9 M, Forskolin 10^-5 M, 30 minutes. The procedure:
The preparation of cells stably expressing GPR12 was conducted by a conventional method, and hereinafter described briefly. A vector (pcDNA3.1-GPR12) in which a gene (cDNA) encoding mouse GPR12 (SEQ ID NO: 8) was inserted at the downstream of a CMV promoter of pcDNA3.1 (TM) (Invitrogen Corporation) was prepared, 10 μg of the vector was mixed with 250 μL of medium OPTI-MEM™ (Invitrogen Corporation), and 10 μg of Lipofectamine™ 2000 Reagent (Invitrogen Corporation) was mixed with 250 μL of medium OPTI-MEM™, 5 minutes later both mixtures were mixed, and the resultant mixture was left over at room temperature for 20 minutes to prepare a transfection reagent. Chinese hamster ovary cells (CHO-K1) [ATCC Cat. No. CCl-61] plated onto a 6-well plate at 1.5×10^6 cells/well on the previous day in advance were washed with medium OPTI-MEM™ once, and the above-mentioned transfection reagent (vector and Lipofectamine™ 2000 Reagent) was added to the cells dropwise to perform transfection. The resultant transfected cells were incubated at 37° C. for 5 hours in a CO2 incubator, and then the medium was replaced by Ham's F12 medium. Further, the next day the medium was exchanged with Ham's F12 medium containing 100 μg/mL of Geneticin® (Invitrogen Corporation), and furthermore the next day the medium was exchanged with the same medium containing 200 μg/mL of Geneticin®, and the following day the medium was exchanged with the same medium containing 700 μg/mL of Geneticin®, and after that, culturing was continued under the conditions of 37° C. and 5% CO2 in a medium containing Geneticin® at the same concentration. […]
The measured intracellular cAMP level was evaluated in terms of a ratio (Fold) of each intracellular cAMP level with respect to the mean of the intracellular cAMP level in the (−) group that is set as unity, in which CHO-K1-GPR12 cells were cultured in the medium containing no peptide.

The target of assay [3] is T2, GPR12 (Mus musculus, UniProt P35412).
T2 construct: in which GPR12 was endogenously expressed; endogenous in cells; host or cells: NB41A3 cells (ATCC-CCL147), mouse brain neuroblastoma
T2 sequence (P35412 1-334): T1 sequence (P35412 1-334)
Briefly: Expression of a CRE-reporter gene (pCRE-Luc luciferase) in NB41A3 cells expressing GPR12 endogenously. In kind it is cell-based. The settings on record: NB41A3 cells transfected with pCRE-Luc, 10^-12 M to 10^-8 M, 16 hours. The procedure:
NB41A3 cells (ATCC-CCL147), a cell strain derived from mouse brain neuroblastoma, in which GPR12 was endogenously expressed were used. The confluent NB41A3 cells were recovered in a 10-cm dish, plated onto 10 cm-dishes after dividing the cell colony in four quarters, and cultured for one day in Ham's F12K medium. The cells were transected with 5 μg of the reporter plasmid pCRE-Luc (Stratagene Corporation, Catalog No. 219074) in which TATA-BOX and luciferase were incorporated into downstream of CRE by a calcium phosphate method. The cells were washed with Ham's F12K medium 16 hours after the transfection. Ham's F12K medium containing no test substance (Vehicle), Ham's F12K medium containing 10^−10 M of Nesfatin-1 M30 (Mid-Segment: SEQ ID NO: 11), Ham's F12K medium containing 10^−10 M of a modified peptide M30_Ag-A (SEQ ID NO: 50) (M30_Ag-A), and Ham's F12K medium containing 10^−10 M of a modified peptide M30_MSH-A (SEQ ID NO: 51) […] were added to the cells, and the resultant mediums were cultured under the conditions of 37° C. and 5% CO2 for 16 hours. After the culturing, the cells were washed twice with phosphate-buffered saline (PBS), lysed with 4 mL of lysis buffer (an aqueous solution containing 25 mM of glycylglicine (pH 7.8), 15 mM of magnesium sulfate, 4 mM of glycol ether diaminetetraacetic acid (EGTA), 1 mM of dithiothreitol (DTT), and 1% (volume/volume) of Triton X-100). […] After adding 200 μL of 0.2 mM of d-luciferin to the diluted cell lysate, the luminescence was measured for 10 seconds by a luminometer, and the amount of luminescence (units) was determined. Further, the amount of protein in each cell lysate was measured by BCA™ Protein Assay Kit-Reducing Agent Compatible (Pearce, Catalog No. 23250), and the value obtained by dividing the amount of luminescence (units) by the amount of protein (μg) in a sample was determined as a luciferase activity. […] The cells were cultured for 16 hours, and then the level of luciferase activity was also determined.
A general note: In a reporter assay the amount or activity of a reporter protein is the signal.

The target of assay [4] is T3, mGPR12 (Mus musculus, UniProt P35412).
T3 sequence (P35412 1-334): T1 sequence (P35412 1-334)
Briefly: cAMP production in HeLa-cell transient expression system. In kind it is cell-based. The arrangement: expressed in transfected cells; host or cells: HeLa cells (transient, lipofection). The conditions noted are these: mGPR12-transiently expressing HeLa cells, ligand 10^-6 M. Here is the method:
A GPCR expression vector prepared in Example 4 was introduced into HeLa cells by lipofection and transiently expressed.
HeLa cells were peeled off using trypsin EDTA and recovered, and plated onto a 6-well plate with 7×10^5 cells/2 mL/well to perform overnight culture using a CO2 incubator. The next day, a plasmid solution was prepared by adding 4 μg of plasmid into 250 μL of a serum-free Opti-MEM medium. On the other hand, a Lipofectamine 2000 solution was prepared by adding 10 μL of Lipofectamine 2000 (Invitrogen Corporation) into 250 μL of the serum-free Opti-MEM medium. These solutions were incubated at room temperature for 5 minutes, and the Lipofectamine 2000 solution was added bit by bit into the plasmid solution. The resultant mixture was incubated at room temperature for 20 minutes to prepare a solution for lipofection. […]
The 5× Ligand solution was added at 20 μL/well so that the final concentration may become 10^−6 M, and the plate was incubated in a CO2 incubator for 30 minutes. […] Further, in order to lyse the cells completely, the cells were frozen once at −20° C. and lysed again, and then the intracellular cAMP concentration was measured using cAMP-Screen System (Applied Biosystems, T1500).

For “M30_MSH-A: human Nesfatin-1M30 with the 22nd to 25th residues from the N-terminus substituted with alanine, SEQ ID NO: 51 (PDTGLYYDEYLKQVIDVLETDAAAAEKLQK; Synthetic M30_MSH-A peptide)”, the “amount of food intake during 3 hours after the administration compared with control group (Vehicle)” value in assay [1] was “significant decrease of the food intake”. Moreover, the “intracellular cAMP level compared with the group (-) cultured in medium containing no peptide” value in assay [2] is “about 10 fold”. For the same molecule, the “concentration-dependent enhancement of the luciferase activity” value in assay [3] was “observed”.
On the same counts, the results for “M30_Ag-A: human Nesfatin-1M30 with the 11th (Leu) and 13th to 17th residues from the N-terminus substituted with alanine, SEQ ID NO: 50 (PDTGLYYDEYAKAAAAALETDKHFREKLQK; Synthetic M30_Ag-A peptide)” are “no difference”, “hardly elevated” and “not found”.

B1: mouse Nesfatin-1: recombinant mouse Nesfatin-1 (82 amino acids) expressed in Escherichia coli as a GST-His fusion protein and cleaved by thrombin (protein)
chain: VPIDVDKTKVHNTEPVENARIEPPDTGLYYDEYLKQVIEVLETDPHFREKLQKADIEEIRSGRLSQELDLVSHKVRTRLDEL
Regarding B1, the cAMP production entry in assay [4] (with Forskolin addition (2 μM)) and in assay [4] (without Forskolin addition) was “increase in cAMP production was confirmed” in each case.
